Laboratory results as given in the Immune Epitope Database (IEDB).

Experiments:
HLA-A*02:12 = assay: IEDB peptide-MHC binding, purified MHC/direct/fluorescence; filed as Kd, often an IC50 or EC50 that approximates it; ≥ and ≤ were set here for values at or beyond the usual limits of such assays
HLA-A*03:01 [1] = assay: as above
HLA-A*29:02 = assay: as above
HLA-A*23:01 = assay: as above; settings: source organism: Zaire ebolavirus
HLA-A*02:03 = assay: as above; settings: source organism: Zaire ebolavirus
HLA-A*24:03 = assay: as above; settings: source organism: Zaire ebolavirus
HLA-A*02:19 = assay: as above
HLA-A*02:16 = assay: as above; settings: source organism: Zaire ebolavirus
HLA-B*07:02 [2] = assay: as above
HLA-A*02:11 = assay: as above; settings: source organism: Zaire ebolavirus
HLA-A*68:02 = assay: as above; settings: source organism: Zaire ebolavirus
HLA-A*24:02 = assay: IEDB peptide-MHC binding, purified MHC/competitive/fluorescence; ≥ and ≤ were set here for values at or beyond the usual limits of such assays; settings: source organism: Zaire ebolavirus
HLA-B*07:02 [3] = assay: as above
HLA-A*02:01 [4] = assay: as above; settings: source organism: Zaire ebolavirus
HLA-B*08:01 [5] = assay: as above
HLA-B*18:01 [6] = assay: IEDB peptide-MHC binding, purified MHC/competitive/fluorescence; filed as Kd, often an IC50 or EC50 that approximates it; ≥ and ≤ were set here for values at or beyond the usual limits of such assays; settings: source organism: Zaire ebolavirus
HLA-B*39:01 = assay: as above
HLA-B*46:01 = assay: as above; settings: source organism: Zaire ebolavirus
HLA-B*51:01 [7] = assay: as above; settings: source organism: Zaire ebolavirus
HLA-A*26:01 = assay: as above; settings: source organism: Zaire ebolavirus
HLA-B*57:01 = assay: as above
HLA-A*69:01 [8] = assay: as above; settings: source organism: Zaire ebolavirus
HLA-B*27:03 = assay: as above; settings: source organism: Zaire ebolavirus
HLA-B*15:17 = assay: as above
HLA-A*02:01 [9] = assay: as above
HLA-B*15:01 = assay: as above
HLA-A*11:01 [10] = assay: IEDB peptide-MHC binding, purified MHC/competitive/fluorescence; ≥ and ≤ were set here for values at or beyond the usual limits of such assays
HLA-B*27:05 = assay: IEDB peptide-MHC binding, purified MHC/direct/fluorescence; filed as Kd, often an IC50 or EC50 that approximates it; ≥ and ≤ were set here for values at or beyond the usual limits of such assays; settings: source organism: Vibrio cholerae
HLA-B*18:01 [11] = assay: as above; settings: source organism: Vibrio cholerae
HLA-B*40:01 = assay: as above; settings: source organism: Vibrio cholerae
HLA-B*48:01 = assay: as above; settings: source organism: Vibrio cholerae
HLA-A*26:02 = assay: as above; settings: source organism: Vibrio vulnificus CMCP6
HLA-A*31:01 = assay: as above; settings: source organism: Vibrio cholerae
HLA-B*51:01 [12] = assay: as above; settings: source organism: Vibrio vulnificus CMCP6
HLA-A*69:01 [13] = assay: as above; settings: source organism: Vibrio cholerae
HLA-A*01:01 = assay: as above; settings: source organism: Vibrio cholerae
HLA-B*58:01 = assay: as above; settings: source organism: Vibrio vulnificus CMCP6
HLA-B*15:09 = assay: as above; settings: source organism: Vibrio vulnificus CMCP6
HLA-B*08:01 [14] = assay: as above; settings: source organism: Vibrio vulnificus CMCP6
HLA-A*02:06 = assay: IEDB peptide-MHC binding, purified MHC/competitive/fluorescence; filed as Kd, often an IC50 or EC50 that approximates it; ≥ and ≤ were set here for values at or beyond the usual limits of such assays; settings: source organism: Vibrio cholerae V52
HLA-A*30:01 = assay: as above; settings: source organism: Vibrio cholerae V52
HLA-A*11:01 [15] = assay: as above; settings: source organism: Vibrio cholerae V52
HLA-A*03:01 [16] = assay: IEDB peptide-MHC binding, purified MHC/competitive/fluorescence; ≥ and ≤ were set here for values at or beyond the usual limits of such assays; settings: source organism: Variola virus
[17] = source organism: Zaire ebolavirus
[18] = source organism: Vibrio vulnificus CMCP6
[19] = source organism: Vibrio cholerae V52

Q: APFARLLNL was tested. Which Kd (HLA-A*02:12; [17]) did it give?
A: ≥ 20 µM

Q: And the Kd (HLA-A*03:01 [1]; [17])?
A: ≥ 20 µM

Q: And the Kd (HLA-A*29:02; [17])?
A: ≥ 20 µM

Q: And the Kd (HLA-A*23:01)?
A: ≥ 20 µM

Q: And the Kd (HLA-A*02:03)?
A: ≥ 20 µM

Q: What about the Kd (HLA-A*24:03) of the same sequence?
A: ≥ 20 µM

Q: What about the Kd (HLA-A*02:19; [17]) of the same sequence?
A: ≥ 20 µM

Q: What about the Kd (HLA-A*02:16) of the same sequence?
A: ≥ 20 µM

Q: What about the Kd (HLA-B*07:02 [2]; [17]) of the same sequence?
A: 0.0218 µM

Q: What about the Kd (HLA-A*02:11) of the same sequence?
A: ≥ 20 µM

Q: What about the Kd (HLA-A*68:02) of the same sequence?
A: ≥ 20 µM

Q: And the IC50 (HLA-A*24:02)?
A: 5.54 µM

Q: What about the IC50 (HLA-B*07:02 [3]; [17]) of the same sequence?
A: 0.633 µM

Q: And the IC50 (HLA-A*02:01 [4])?
A: ≥ 161 µM

Q: And the IC50 (HLA-B*08:01 [5]; [17])?
A: 7.08 µM

Q: And the Kd (HLA-B*18:01 [6])?
A: ≥ 20 µM

Q: What about the Kd (HLA-B*39:01; [17]) of the same sequence?
A: ≥ 20 µM

Q: And the Kd (HLA-B*46:01)?
A: ≥ 20 µM

Q: What about the Kd (HLA-B*51:01 [7]) of the same sequence?
A: ≥ 20 µM

Q: And the Kd (HLA-A*26:01)?
A: ≥ 20 µM

Q: And the Kd (HLA-B*57:01; [17])?
A: ≥ 20 µM

Q: What about the Kd (HLA-A*69:01 [8]) of the same sequence?
A: ≥ 20 µM

Q: And the Kd (HLA-B*27:03)?
A: ≥ 20 µM

Q: What about the Kd (HLA-B*15:17; [17]) of the same sequence?
A: ≥ 20 µM

Q: And the Kd (HLA-A*02:01 [9]; [17])?
A: ≥ 20 µM

Q: What about the Kd (HLA-B*15:01; [17]) of the same sequence?
A: ≥ 20 µM

Q: How did the IC50 (HLA-B*07:02 [3]; [17]) turn out when GRRTRREAI was run?
A: ≥ 102 µM

Q: And the IC50 (HLA-A*02:01 [4])?
A: ≥ 83.2 µM

Q: And the IC50 (HLA-A*11:01 [10]; [17])?
A: ≥ 297 µM

Q: What about the IC50 (HLA-B*08:01 [5]; [17]) of the same sequence?
A: 7.09 µM

Q: For MVTLRKERL, which IC50 (HLA-A*24:02) is on record?
A: 4.33 µM

Q: What about the IC50 (HLA-B*07:02 [3]; [17]) of the same sequence?
A: 10.4 µM

Q: What about the IC50 (HLA-A*02:01 [4]) of the same sequence?
A: 18.8 µM

Q: What about the IC50 (HLA-B*08:01 [5]; [17]) of the same sequence?
A: 13.9 µM

Q: How did the Kd (HLA-B*27:05) turn out when TTILGLLPM was run?
A: ≥ 20 µM

Q: And the Kd (HLA-A*02:12; [18])?
A: ≥ 20 µM

Q: What about the Kd (HLA-B*18:01 [11]) of the same sequence?
A: 0.012 µM

Q: And the Kd (HLA-B*40:01)?
A: 0.189 µM

Q: And the Kd (HLA-B*48:01)?
A: ≥ 20 µM

Q: What about the Kd (HLA-A*26:02) of the same sequence?
A: ≤ 0.001 µM

Q: And the Kd (HLA-A*31:01)?
A: ≥ 20 µM

Q: And the Kd (HLA-A*03:01 [1]; source organism: Vibrio cholerae)?
A: ≥ 20 µM

Q: And the Kd (HLA-A*29:02; [18])?
A: 0.016 µM

Q: What about the Kd (HLA-A*02:19; [18]) of the same sequence?
A: ≥ 20 µM

Q: And the Kd (HLA-B*51:01 [12])?
A: ≥ 20 µM

Q: What about the Kd (HLA-B*07:02 [2]; [18]) of the same sequence?
A: ≥ 20 µM

Q: What about the Kd (HLA-A*69:01 [13]) of the same sequence?
A: 0.0016 µM

Q: What about the Kd (HLA-A*01:01) of the same sequence?
A: ≥ 20 µM

Q: And the Kd (HLA-B*58:01)?
A: 0.329 µM

Q: And the Kd (HLA-B*15:09)?
A: 7.7 µM

Q: And the Kd (HLA-B*08:01 [14])?
A: ≥ 20 µM

Q: And the Kd (HLA-A*02:06)?
A: 0.0057 µM

Q: What about the Kd (HLA-A*30:01) of the same sequence?
A: 0.677 µM

Q: And the Kd (HLA-B*39:01; [19])?
A: 0.618 µM

Q: What about the Kd (HLA-B*57:01; [19]) of the same sequence?
A: 3.58 µM

Q: What about the Kd (HLA-B*15:17; [19]) of the same sequence?
A: 0.0387 µM

Q: What about the Kd (HLA-A*02:01 [9]; [19]) of the same sequence?
A: ≥ 20 µM

Q: And the Kd (HLA-A*11:01 [15])?
A: ≥ 20 µM

Q: And the Kd (HLA-B*15:01; [19])?
A: 0.308 µM

Q: Which results are given for VARKHHTKI?
A: IC50 (HLA-A*03:01 [16]): ≥ 110 µM; IC50 (HLA-B*07:02 [3]; source organism: Variola virus): 10.5 µM; IC50 (HLA-A*11:01 [10]; source organism: Variola virus): ≥ 70.5 µM; IC50 (HLA-B*08:01 [5]; source organism: Variola virus): ≥ 348 µM
